Measured values taken from publication PMC8104893 (Science Advances, 2021).

Target: T1, GST-XBAT31 (Arabidopsis, UniProt Q94B55 1-456)
T1 sequence (looked up): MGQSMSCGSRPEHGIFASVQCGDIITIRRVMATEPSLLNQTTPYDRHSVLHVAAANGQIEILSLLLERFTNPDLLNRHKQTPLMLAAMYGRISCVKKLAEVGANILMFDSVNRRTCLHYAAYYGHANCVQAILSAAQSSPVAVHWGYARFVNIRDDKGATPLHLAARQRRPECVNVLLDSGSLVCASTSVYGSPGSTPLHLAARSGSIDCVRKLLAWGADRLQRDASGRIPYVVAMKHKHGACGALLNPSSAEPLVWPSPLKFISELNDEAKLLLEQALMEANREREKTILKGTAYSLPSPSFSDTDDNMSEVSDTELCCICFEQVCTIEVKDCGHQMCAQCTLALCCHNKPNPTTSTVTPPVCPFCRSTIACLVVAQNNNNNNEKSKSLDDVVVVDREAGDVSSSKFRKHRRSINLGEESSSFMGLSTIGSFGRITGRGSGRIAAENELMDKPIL
Experiment: pull-down

B1: MBP-BBX18 (natural protein, Arabidopsis, UniProt Q9SJU5 1-172, looked up)
chain: MRILCDACESAAAIVFCAADEAALCCSCDEKVHKCNKLASRHLRVGLADPSNAPSCDICENAPAFFYCEIDGSSLCLQCDMVVHVGGKRTHRRFLLLRQRIEFPGDKPNHADQLGLRCQKASSGRGQESNGNGDHDHNMIDLNSNPQRVHEPGSHNQEEGIDVNNANNHEHE
**Q.** Does B1 bind?
**A.** binds
